From patent US20240392024A1 (SHANGHAI CELGEN BIO PHARMACEUTICAL, published 2024)
Where a chain is given by its changes, count along the chain named. Where “and” joins values, the source holds several entries; their conditions need not be identical. Equal entries are not always repeated.

T1: TNFR2-His (Sino Biological, 10417-H08H, NP_001057.1 Met1-Asp257, with multi-histidine tag expressed on … (human, UniProt P20333 23-257))
T1 construct: range 1-257; Bought protein; also called recombinant human TNFR2 protein; TNFR2-His antigen; not shown: C-terminal multi-histidine tag
T1 sequence (looked up): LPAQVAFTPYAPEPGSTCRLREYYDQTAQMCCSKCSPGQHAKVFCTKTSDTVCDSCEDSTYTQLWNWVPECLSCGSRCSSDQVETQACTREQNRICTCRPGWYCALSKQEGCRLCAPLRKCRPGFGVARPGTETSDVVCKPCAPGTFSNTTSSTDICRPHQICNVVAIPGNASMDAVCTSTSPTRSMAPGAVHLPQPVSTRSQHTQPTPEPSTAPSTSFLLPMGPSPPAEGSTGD

T2: human TNFR2 on the cell membrane (human, UniProt P20333 23-461)
T2 construct: whole, on cells; One molecule for all cell formats; also called TNFR2-CHO cells; CHO-TNFR2
T2 sequence (looked up): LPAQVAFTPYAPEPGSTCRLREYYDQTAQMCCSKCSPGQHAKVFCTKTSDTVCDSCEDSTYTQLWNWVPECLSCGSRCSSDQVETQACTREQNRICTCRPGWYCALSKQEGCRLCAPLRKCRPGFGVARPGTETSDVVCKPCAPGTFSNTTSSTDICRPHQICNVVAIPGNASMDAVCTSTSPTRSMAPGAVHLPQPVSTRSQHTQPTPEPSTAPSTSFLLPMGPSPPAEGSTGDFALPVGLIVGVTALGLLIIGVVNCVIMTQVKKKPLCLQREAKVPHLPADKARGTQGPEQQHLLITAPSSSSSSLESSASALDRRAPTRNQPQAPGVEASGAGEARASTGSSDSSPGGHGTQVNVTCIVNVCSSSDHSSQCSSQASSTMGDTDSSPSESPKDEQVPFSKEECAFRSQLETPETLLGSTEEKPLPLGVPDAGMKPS

B1: 33C12huVH2 + huVL2(P07301) (antibody, V domains shown)
VH: EVQLVESGGGLVKPGGSLRLSCAASGFTFSDYTMSWVRQAPGKGLEWVATISTGGSYTYYPDSVKGRFTISRDNAKNTLYLQMSSLRAEDTAVYYCARDGGYDGDYFDYWGQGTTVTVSS
VL: ENVLTQSPATLSLSPGERATLSCRASSSVSSSYLHWYQQKPGQAPRLWIYRTSNLASGVPARFSGSGSGTDFTLTISRLEPEDFAVYYCQQYSGYPLTFGGGTKLEIK
notes: Humanized 33C12
B2: 33C12huVH3 + huVL3(P07304) (antibody, V domains shown)
VH: B1 VH with P61A, T78S, S84N
VL: B1 VL with N2I, W48L, S57T, V59I, A61D
notes: Humanized 33C12
B3: 33C12huVH2 + huVL1(P07299) (antibody, V domains shown)
VH: B1 VH
VL: B1 VL with L21M, F72Y, L79V
notes: Humanized 33C12
B4: 33C12huVH3 + huVL2(P07302) (antibody, V domains shown)
VH: B1 VH with P61A, T78S, S84N
VL: B1 VL
notes: Humanized 33C12
B5: 33C12huVH2 + huVL3(P07303) (antibody, V domains shown)
VH: B1 VH
VL: B1 VL with N2I, W48L, S57T, V59I, A61D
notes: Humanized 33C12
B6: 33C12huVH3 + huVL1(P07300) (antibody, V domains shown)
VH: B1 VH with P61A, T78S, S84N
VL: B1 VL with L21M, F72Y, L79V
notes: Humanized 33C12
B7: 33C12huVH1 + huVL1(P07298) (antibody, V domains shown)
VH: B1 VH with E1D, A97T
VL: B1 VL with L21M, F72Y, L79V
notes: Humanized 33C12
B8: 12E12-huVH6 + huVL2(P08937) (antibody, V domains shown)
VH: QVQLVQSGAEVKKPGASVKVSCKASGYTITDFYIHWVRQAPGQGLEWIGRVDPEDGNTEYAPNFQDRATMTTDTSTSTAYLELSSLRSEDTAVYYCSTWDGFSYFDYWGQGTTVTVSS
VL: QAVVTQEPSLTVSPGGTVTLTCRSSTGPVTTNNYANWVQQKPGQAFRGLIGGTNDRAPGVPARFSGSLLGGKAALTLSGAQPEDEAEYYCALWYRNHWVFGGGTKLTVL
notes: Humanized 12E12
B9: 12E12-huVH8 + huVL2(P08939) (antibody, V domains shown)
VH: EVQLVQSGAEVKKPGATVKISCKVSGYTITDFYIHWVQQAPGKGLEWMGRVDPEDGNTEYAPNFQDRVTITADTSTDTAYMELSSLRSEDTAVYYCSTWDGFSYFDYWGQGTTVTVSS
VL: B8 VL
notes: Humanized 12E12
B10: 12E12huVH4 + huVL4(P07291) (antibody, V domains shown)
VH: B9 VH with Y27F, T28N, T30K, M48I
VL: EAVVTQSPATLSLSPGERATLSCRSSTGPVTTNNYANWVQQKPGQAFRGLIGGTNDRAPGIPARFSGSGSGTDTTLTISSLQPEDFAVYYCALWYRNHWVFGGGTKLEIK
notes: Humanized 12E12
B11: 11G2huVH4 + huVL3(P07274) (antibody, V domains shown)
VH: QVQLVQSGAEVKKPGASVKVSCKASGYTFITYDINWVRQAPGQGLEWIGWIYPRDGNTQYAQKFQGRVTMTTDTSTSTAYMELRSLRSDDTAVYYCARGDRDYGYFDVWGQGTTVTVSS
VL: DIQMTQSPSSLSASVGDRVTITCQASQDISNYLNWYQQKPGKAPKLLIYFKSKLETGVPSRFSGSGSGTDFTFTISSLQPEDIATYYCQQGNTLPLTFGGGTKLEIK
notes: Humanized 11G2
B12: 11G2huVH4 + huVL2(P07269) (antibody, V domains shown)
VH: B11 VH
VL: B11 VL with Q24R, E55H, T56S, F73L, I83F
notes: Humanized 11G2
B13: 11G2huVH5 + huVL2(P07270) (antibody, V domains shown)
VH: B11 VH with P41T, T72R, D73N, T76I, R84S, D89E
VL: B11 VL with Q24R, E55H, T56S, F73L, I83F
notes: Humanized 11G2
B14: 11G2huVH5 + huVL3(P07275) (antibody, V domains shown)
VH: B11 VH with P41T, T72R, D73N, T76I, R84S, D89E
VL: B11 VL
notes: Humanized 11G2

What follows are binders tested against T1, TNFR2-His (Sino Biological, 10417-H08H, …) (assay: BLI, antibody captured on AHC probe, TNFR2-His in solution).
Summary of the method: (§1)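 Kon, koff and Kd values come from kinetic association measurements made by bio-layer interferometry (Octet, Basic Kinetics mode). Antibody-capture sensors carrying antibodies at 50 nM in Q buffer (10 mM PBS pH 7.4, 0.02% Tween 20, 0.2% BSA) were placed in recombinant human TNFR2, diluted 2-fold in the same buffer from a top concentration of 100 nM.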

Kd	koff	kon	Binder
17.8 nM	0.00279 s⁻¹	157000 M⁻¹ s⁻¹	B1
48.7 nM	0.00368 s⁻¹	75600 M⁻¹ s⁻¹	B2
15.1 nM	0.0013 s⁻¹	86100 M⁻¹ s⁻¹	B3
11.9 nM	0.00188 s⁻¹	158000 M⁻¹ s⁻¹	B4
16.3 nM	0.00167 s⁻¹	102000 M⁻¹ s⁻¹	B5
12.7 nM	0.00223 s⁻¹	175000 M⁻¹ s⁻¹	B6
17.7 nM	0.00171 s⁻¹	96400 M⁻¹ s⁻¹	B7

What follows are binders tested against T1, TNFR2-His (Sino Biological, 10417-H08H, …) (assay: ELISA, plate coated with TNFR2-His (second test)).
Summary of the method: (§2)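 EC50 was obtained from a dilution series in an ELISA format. Blocked plates carried recombinant human TNFR2 with a C-terminal His tag, and serially diluted antibodies were incubated on them. An enzyme-labelled anti-IgG secondary antibody followed. Plates were then developed with TMB and read on a microplate reader.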

EC50	Binder
0.0322 µg/mL and 0.216 nM	B8
0.0284 µg/mL and 0.19 nM	B9

Each binder was assayed against T1, TNFR2-His (Sino Biological, 10417-H08H, …) (assay: BLI, antibody captured on AHC probe, TNFR2 in solution).
Summary of the method: as §1

Kd	koff	kon	Binder
4.84 nM	0.00379 s⁻¹	782000 M⁻¹ s⁻¹	B10
5.28 nM	0.00449 s⁻¹	849000 M⁻¹ s⁻¹	B8
3.92 nM	0.00442 s⁻¹	1.13e+06 M⁻¹ s⁻¹	B9

Each binder was assayed against T1, TNFR2-His (Sino Biological, 10417-H08H, …) (assay: ELISA, plate coated with TNFR2-His (first test)).
Summary of the method: as §2

EC50	Binder
0.0416 µg/mL and 0.279 nM	B10

What follows are binders tested against T1, TNFR2-His (Sino Biological, 10417-H08H, …) (assay: ELISA, coated TNFR2-His).
Summary of the method: as §2

EC50	Binder
0.5 nM	B11
0.364 nM	B12
0.353 nM	B13
0.149 nM	B14
0.886 nM	B1
0.354 nM	B2
1.46 nM	B3
2.03 nM	B4
0.771 nM	B5
1.08 nM	B6
0.433 nM	B7

Each binder was assayed against T1, TNFR2-His (Sino Biological, 10417-H08H, …) (assay: ELISA, plate coated with TNFR2-His).
Summary of the method: as §2

EC50	Binder
0.0746 µg/mL	B11
0.0544 µg/mL	B12
0.0527 µg/mL	B13
0.0222 µg/mL	B14

What follows are binders tested against T2, human TNFR2 on the cell membrane (assay: flow cytometry, CHO-TNFR2 cells).
Summary of the method: (§3)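 EC50 values come from flow cytometry of serially diluted antibodies binding CHO cells that stably overexpress human TNFR2. After incubation in 96-deep-well plates, the cells were washed, stained with a fluorescent anti-IgG secondary antibody and read on a Beckman CytoFLEX.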

EC50	Binder
0.226 nM	B11
0.183 nM	B12
0.162 nM	B13
0.056 nM	B14
0.873 nM	B1
1.08 nM	B2
2.27 nM	B3
3.01 nM	B4
1.12 nM	B5
1.44 nM	B6
0.448 nM	B7

Molecular target: T1, TNFR2-His (Sino Biological, 10417-H08H, …)
Experiment: BLI, antibody captured on AHC probe, TNFR2-His in solution
Remark: another data set of the same source
Summary of the method: as §1

Kd	koff	kon	Binder
20.1 nM	0.00511 s⁻¹	254000 M⁻¹ s⁻¹	B11
13.5 nM	0.00379 s⁻¹	281000 M⁻¹ s⁻¹	B12
8.13 nM	0.00265 s⁻¹	326000 M⁻¹ s⁻¹	B13
14.1 nM	0.00302 s⁻¹	213000 M⁻¹ s⁻¹	B14

These binders were tested against T2, human TNFR2 on the cell membrane (assay: flow cytometry on CHO-TNFR2 cells).
Summary of the method: as §3

EC50	Binder
0.13 µg/mL	B1
0.161 µg/mL	B2
0.34 µg/mL	B3
0.449 µg/mL	B4
0.167 µg/mL	B5
0.214 µg/mL	B6
0.0669 µg/mL	B7

Molecular target: T2, human TNFR2 on the cell membrane
Experiment: flow cytometry on CHO-TNFR2 cells
Remark: another data set of the same source
Summary of the method: as §3

EC50	Binder
0.0338 µg/mL	B11
0.0273 µg/mL	B12
0.0242 µg/mL	B13
0.0084 µg/mL	B14

Molecular target: T2, human TNFR2 on the cell membrane
Experiment: flow cytometry on CHO-TNFR2 cells
Remark: another data set of the same source
Summary of the method: as §3

EC50	Binder
0.0215 µg/mL and 0.144 nM	B10
0.0096 µg/mL and 0.064 nM	B8
0.0158 µg/mL and 0.106 nM	B9

Molecular target: T1, TNFR2-His (Sino Biological, 10417-H08H, …)
Experiment: ELISA, plate coated with TNFR2-His
Remark: another data set of the same source
Summary of the method: as §2

EC50	Binder
0.132 µg/mL	B1
0.0528 µg/mL	B2
0.218 µg/mL	B3
0.303 µg/mL	B4
0.115 µg/mL	B5
0.161 µg/mL	B6
0.0646 µg/mL	B7
